Experimental data published in article doi:10.1101/2023.02.03.526778.

Molecular target: His-tagged recombinant human LDLR (extracellular domain, hLDLR-ECD) (human) (UniProt P01130)
Assay: SPR

UniProt P01130, sequence (P01130 22-788): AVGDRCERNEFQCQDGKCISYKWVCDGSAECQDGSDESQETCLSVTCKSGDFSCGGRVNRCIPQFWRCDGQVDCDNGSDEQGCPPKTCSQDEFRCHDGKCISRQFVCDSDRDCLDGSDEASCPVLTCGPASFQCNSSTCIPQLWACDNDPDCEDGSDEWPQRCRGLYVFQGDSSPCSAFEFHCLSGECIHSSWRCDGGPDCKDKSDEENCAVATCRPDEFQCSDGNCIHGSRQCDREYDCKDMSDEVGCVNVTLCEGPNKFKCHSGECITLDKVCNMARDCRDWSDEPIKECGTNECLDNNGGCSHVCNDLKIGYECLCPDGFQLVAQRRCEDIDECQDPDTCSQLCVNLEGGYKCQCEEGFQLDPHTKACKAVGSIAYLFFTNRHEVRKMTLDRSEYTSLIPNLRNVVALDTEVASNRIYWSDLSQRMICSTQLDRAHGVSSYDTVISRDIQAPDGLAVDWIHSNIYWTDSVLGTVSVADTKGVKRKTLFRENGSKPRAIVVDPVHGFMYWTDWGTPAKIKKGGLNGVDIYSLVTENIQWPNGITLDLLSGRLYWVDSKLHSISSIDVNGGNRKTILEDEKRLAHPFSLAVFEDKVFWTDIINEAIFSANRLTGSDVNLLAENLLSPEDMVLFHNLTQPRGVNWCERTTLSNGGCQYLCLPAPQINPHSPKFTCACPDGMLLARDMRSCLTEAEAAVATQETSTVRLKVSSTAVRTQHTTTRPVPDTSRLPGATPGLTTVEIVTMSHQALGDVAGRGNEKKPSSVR

VH4127 peptide (cyclo[(D)-Cys-Met-Thz-Arg-Leu-Arg-Gly-Pen])
Kd: 40.1 nM
